Measured values taken from patent US8524227B2, “Anti-IL-TIF antibodies” (ZymoGenetics, Inc., priority 2002, dated 2013).

How the values were obtained:
IL-TIF [1] = biological target: T1, IL-TIF (Homo sapiens, UniProt Q9GZX6); assay: Inhibition of IL-TIF-induced proliferation of BaF3/CRF2-4/zcytor11 cells by soluble receptors; assay type: cell-based; details: 100 pg/ml IL-TIF
T1 sequence (Q9GZX6 13-179 limits assumed): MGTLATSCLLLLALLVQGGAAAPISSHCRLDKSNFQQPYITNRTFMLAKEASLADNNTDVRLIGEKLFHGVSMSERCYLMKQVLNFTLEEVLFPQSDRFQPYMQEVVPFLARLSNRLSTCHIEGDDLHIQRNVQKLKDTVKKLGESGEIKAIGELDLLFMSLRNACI
Experimental: BaF3/CRF2-4/zcytor11 cells described herein were spun down and washed in PBS 2 times to ensure the removal of the mIL-3, and then spun a third time and re-suspended in the complete media (RPMI 1640, 10% FBS, 1% GlutaMAX, 1% Sodium Pyruvate), but without mIL-3 (hereinafter referred to as “mIL-3 free media”). Cells were then counted in a hemocytometer. Cells were plated in a 96-well format at 5000 cells per well in a volume of 100 μl per well using the mIL-3 free media.
IL-TIF protein (SEQ ID NO:3) was diluted to 200 pg/ml in mIL-3 free media. Zcytor16-Fc4 fusion protein (described herein) was diluted to 1 μg/ml in the mIL-3 free/IL-TIF media on the top row of the plate, and then diluted serially 1:2 down the remaining 7 rows on the 96-well plate, leaving a volume of 100 μl in each well. This was then added to the 100 μl of cells, for a final IL-TIF concentration of 100 pg/ml in all wells, and final Zcytor16-Fc4 concentrations of approximately […], 0.016, and 0.008 μg/ml in a total assay volume of 200 μl. CRF2-4/zcytor11-Fc4 was diluted to 8 μg/ml in the mIL-3 free/IL-TIF media on the top row of the plate, and then diluted serially 1:2 down the remaining 7 rows on the 96-well plate, leaving a volume of 100 μl in each well. This was then added to the 100 μl of cells, for a final IL-TIF concentration of 100 pg/ml in all wells, and final CRF2-4/zcytor11-Fc4 concentrations of approximately […], 0.25, 0.125 and 0.063 μg/ml, in a total assay volume of 200 The assay plates were incubated at 37° C., 5% CO2 for 4 days at which time Alamar Blue (Accumed, Chicago, Ill.) was added at […]. Plates were again incubated at 37° C., 5% CO2 for 16 hours. Alamar Blue gives a fluourometric readout based on number of live cells, and is thus a direct measurement of cell proliferation in comparison to a negative control. Plates were read on the Wallac Victor 2 1420 Multilabel Counter (Wallac, Turku, Finland) at wavelengths 530 (Excitation) and 590 (Emmssion). […] IL-TIF alone stimulated the cells 13-fold over background.

IL-TIF [2] = biological target: T1, IL-TIF; assay: SAA induction by IL-TIF in mice, inhibition by zcytor16-Fc4; assay type: in vivo; details: 3 μg IL-TIF IP with 20-100 ug zcytor16-Fc4 IP 15 minutes before
Experimental: To assess whether zcytor16 could inhibit the SAA induction by IL-TIF mice (female, C3H/HEJ, 8 weeks old; Jackson Labs, Bar Harbor, Me.) were divided into five groups of three animals each and treated by IP injection of proteins as shown in Table 15 below:
The zcytor16 injections preceded the IL-TIF injection by 15 minutes. Both protein injections were given by the intraperitoneal route. A blood sample was taken from each mouse prior to treatment, then at 2 and 6 hours after treatment. Serum was prepared from each of the samples for measurement of SAA and IL-TIF.
An ELISA was performed as described previously to determine the level of SAA in mice treated with IL-TIF and a soluble receptor for IL-TIF, zcytor16-Fc4 described herein.

[3] = LPS-induced endotoxemia mouse model; assay type: in vivo, mice
Experimental: Briefly, six month Balb/c (CRL) female mice were injected with 25 μg LPS (Sigma) in sterile PBS intraperitoneally (IP). Serum samples were collected at 0, 1, 4, 8, 16, 24, 48 and 72 hr from groups of 8 mice for each time point. Serum samples were assayed for inflammatory cytokine levels. IL-1b, IL-6, TNFa, IL-10 and serum amyloid A protein (SAA) levels were measured using commercial ELISA kits purchased from Biosource International (Camarillo, Calif.).
Body temperatures in a separate group of animals were monitored by surgically implanted telemetry devices over the course of the 72 hr experiment. Body temperatures in mice dropped maximally by 2° C. from 37.07° C. to 34.98° C. 30 minutes after LPS injection.
The ability of zcytor16 treatment to effect proinflammatory indicators induced with a single 25 μg LPS dose IP in mice was tested. All samples were analyzed for SAA, IL-TIF and circulating neutrophil counts. Subsets from each group were analyzed for particular cytokine levels (1 hour samples were screened for TNF alpha, 4 hour samples were analyzed for IL-6) Animals were sacrificed at indicated time points in Table 17 below and whole blood and serum were collected and aliquoted for analysis.
72 B1/6 female mice (CRL) were given a single IP dose of zcytor16 as described in Table 17, below. Control mice were C57B1/6 (CRL).
30 minutes later, they received another IP injection of 25 μg LPS (Sigma) in 100 μl, to initiate an endotoxemia cascade.
To assess whether zcytor16 could inhibit the SAA induction in the LPS-induced endotoxemia mouse model, mice were injected with Zcytor16, 30 minutes prior to LPS injection, as shown in Table 17 in Example 31C above.
An ELISA to determine SAA levels in the 4 hour and 8 hour samples was performed using the Mouse SAA Immunoassay Kit (BioSource International, California) following the manufacturer's directions.

concentrations completely inhibiting proliferation (IL-TIF [1]): 0.025 to 1 µg/mL | concentrations partially inhibiting proliferation, lower end (IL-TIF [1]): ≥ 8 ng/mL | inhibition of the proliferative effect of IL-TIF (IL-TIF [1]): strong dose-dependant inhibition
B1: zcytor16-Fc4: soluble receptor for IL-TIF, zcytor16 fused to Fc4; IL-TIF antagonist (protein)
chain: TQSTHESLKPQRVQFQSRNFHNILQWQPGRALTGNSSVYFVQYKIYGQRQWKNKEDCWGTQELSCDLTSETSDIQEPYYGRVRAASAGSYSEWSMTPRFTPWWETKIDPPVMNITQVNGSLLVILHAPNLPYRYQKEKNVSIEDYYELLYRVFIINNSLEKEQKVYEGAHRAVEIEALTPHSSYCVVAEIYQPMLDRRSQRSEERCVEIPEPRSSDKTHTCPPCPAPEAEGAPSVFLFPPKPKDTLMISRTPEVTCVVVDVSHEDPEVKFNWYVDGVEVHNAKTKPREEQYNSTYRVVSVLTVLHQDWLNGKEYKCKVSNKALPSSIEKTISKAKGQPREPQVYTLPPSRDELTKNQVSLTCLVKGFYPSDIAVEWESNGQPENNYKTTPPVLDSDGSFFLYSKLTVDKSRWQQGNVFSCSVMHEALHNHYTQKSLSLSPGK
level of SAA (IL-TIF [2]): reduction in the level of SAA induced by IL-TIF alone to background levels | effect on SAA induction ([3]; 10 ug 30 minutes prior to LPS): did not have significant effect | reduction of the SAA induction ([3]; 100 ug 30 minutes prior to LPS, 4 hr and 8 hr): about 50% | neutrophil count in circulation ([3]; 1 hr time point): reduced neutrophil count | SAA levels relative to PBS injected mice ([3]; 4 hour, 100 μg or 10 μg): dose-dependant, statistically significant reduction | SAA levels relative to PBS injected mice ([3]; 8 hour, 100m): statistically significant reduction | TNF-alpha and IL-6 level ([3]; mouse, in vivo): no significant change
